Laboratory results: publication PMC5289644

What was measured:
[1] = molecular target: HA-tagged intracellular part of Smβ-Int1 (Smβ-Int1 C-term) (S. mansoni)
[2] = molecular target: HA-tagged intracellular part of Smβ-Int1 (Smβ-Int1 C-term) (S. mansoni); remark: listed apart in the source

## V5-tagged SmVKR1 (wildtype venus kinase receptor 1 of S. mansoni)
[1]
  GVBD (%) of Xenopus oocytes without L-Arg; Smβ-Int1, SmILK, SmPINCH, SmNck2 and SmVKR1 co-expressed (Exp 1): 90%
  GVBD (%) without L-Arg; as Exp 1 with SmILKΔAnk1 in place of SmILK (Exp 2): 0%
  GVBD (%) without L-Arg; as Exp 1 with SmNck2ΔSH3 in place of SmNck2 (Exp 5): 10%
  GVBD (%) without L-Arg; as Exp 1 with SmPINCHΔLIM1 in place of SmPINCH (Exp 4): 0%
  GVBD (%) without L-Arg; as Exp 1 with SmPINCHΔLIM4 in place of SmPINCH (Exp 3): 0%
  GVBD (%) without L-Arg; as Exp 1 with the ILK inhibitor QLT-0267 (1 μM) (Exp 7): 0%
[2]
  GVBD (%) of Xenopus oocytes without L-Arg; Smβ-Int1, SmILK and SmVKR1 co-expressed, no SmPINCH (Inj 10): 0%
  GVBD (%) of Xenopus oocytes without L-Arg; Smβ-Int1, SmILK, SmPINCH and SmVKR1 co-expressed (Inj 11): 80%
  GVBD (%) of Xenopus oocytes without L-Arg; Smβ-Int1, SmILK, SmPINCH, SmNck2 and SmVKR1 co-expressed, with the ILK inhibitor QLT-0267 (1 μM) (Inj 13): 0%
  GVBD (%) of Xenopus oocytes without L-Arg; Smβ-Int1, SmILK, SmPINCH, SmNck2ΔSH3 and SmVKR1 co-expressed (Inj 15): 10%
  GVBD (%) of Xenopus oocytes without L-Arg; Smβ-Int1, SmILK, SmPINCHΔLIM4 in place of SmPINCH and SmVKR1 co-expressed (Inj 14): 0%
  GVBD (%) of Xenopus oocytes without L-Arg; Smβ-Int1, SmILKΔAnk1 in place of SmILK, SmPINCH and SmVKR1 co-expressed (Inj 12): 0%
  GVBD (%) of Xenopus oocytes without L-Arg; Smβ-Int1, SmPINCH and SmVKR1 co-expressed, no SmILK (Inj 9): 0%
